Experimental data reported in patent US20120095193A1 (published 2012).
Substitutions are numbered along the chain they refer to.

T1: Human MMP1 (human, UniProt P03956 20-469, limits assumed)
T1 sequence (looked up): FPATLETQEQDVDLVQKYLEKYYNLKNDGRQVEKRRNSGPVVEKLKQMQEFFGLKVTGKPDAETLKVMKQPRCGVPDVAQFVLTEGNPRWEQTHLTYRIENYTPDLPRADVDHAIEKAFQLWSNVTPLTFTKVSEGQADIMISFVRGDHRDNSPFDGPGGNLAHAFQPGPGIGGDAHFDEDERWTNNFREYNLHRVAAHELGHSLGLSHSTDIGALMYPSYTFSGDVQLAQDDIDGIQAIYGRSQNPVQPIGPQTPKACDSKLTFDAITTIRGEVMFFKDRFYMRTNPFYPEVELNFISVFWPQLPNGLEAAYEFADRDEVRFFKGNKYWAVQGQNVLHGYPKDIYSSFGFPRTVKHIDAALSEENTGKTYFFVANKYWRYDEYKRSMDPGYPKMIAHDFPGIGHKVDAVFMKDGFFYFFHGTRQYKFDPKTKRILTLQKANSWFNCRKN

T2: Human ADAMTS4 (human, UniProt O75173 213-685, limits assumed)
T2 construct: also called aggrecanase-1
T2 sequence: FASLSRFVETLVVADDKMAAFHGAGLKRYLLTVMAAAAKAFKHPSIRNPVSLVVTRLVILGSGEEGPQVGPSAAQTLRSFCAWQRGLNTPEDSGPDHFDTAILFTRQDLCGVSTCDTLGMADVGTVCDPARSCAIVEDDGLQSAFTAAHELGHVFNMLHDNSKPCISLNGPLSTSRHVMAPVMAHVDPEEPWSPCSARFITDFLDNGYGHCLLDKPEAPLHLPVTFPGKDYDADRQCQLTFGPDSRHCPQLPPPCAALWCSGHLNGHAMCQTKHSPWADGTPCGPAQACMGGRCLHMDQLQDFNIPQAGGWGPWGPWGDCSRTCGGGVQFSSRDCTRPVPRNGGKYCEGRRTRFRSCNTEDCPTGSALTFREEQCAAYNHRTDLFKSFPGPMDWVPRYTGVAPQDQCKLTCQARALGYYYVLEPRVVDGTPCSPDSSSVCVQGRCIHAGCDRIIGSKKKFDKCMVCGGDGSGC

T3: Human ADAMTS1 (human, UniProt Q9UHI8 253-967, limits assumed)
T3 sequence (looked up): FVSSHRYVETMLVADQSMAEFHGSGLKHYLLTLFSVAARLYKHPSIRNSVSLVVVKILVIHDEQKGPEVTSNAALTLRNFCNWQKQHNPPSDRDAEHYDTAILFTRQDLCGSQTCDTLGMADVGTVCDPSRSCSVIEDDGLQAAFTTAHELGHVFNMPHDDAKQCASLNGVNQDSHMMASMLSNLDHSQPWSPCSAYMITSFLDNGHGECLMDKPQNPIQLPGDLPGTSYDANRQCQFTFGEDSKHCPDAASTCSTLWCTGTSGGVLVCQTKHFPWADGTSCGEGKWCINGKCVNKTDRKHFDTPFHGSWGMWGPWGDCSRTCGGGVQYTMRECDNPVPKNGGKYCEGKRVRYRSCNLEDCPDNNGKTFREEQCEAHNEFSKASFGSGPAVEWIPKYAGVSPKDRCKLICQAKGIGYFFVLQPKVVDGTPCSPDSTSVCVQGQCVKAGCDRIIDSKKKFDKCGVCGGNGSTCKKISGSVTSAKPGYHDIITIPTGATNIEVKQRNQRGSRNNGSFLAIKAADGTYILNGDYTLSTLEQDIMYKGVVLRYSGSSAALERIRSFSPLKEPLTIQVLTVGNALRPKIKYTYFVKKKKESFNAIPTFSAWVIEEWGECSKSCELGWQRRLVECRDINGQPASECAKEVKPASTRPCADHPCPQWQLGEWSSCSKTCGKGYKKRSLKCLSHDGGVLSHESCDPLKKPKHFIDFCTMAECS

T4: Human ADAMTS13 (human, UniProt Q76LX8 75-685, limits assumed)
T4 sequence (looked up): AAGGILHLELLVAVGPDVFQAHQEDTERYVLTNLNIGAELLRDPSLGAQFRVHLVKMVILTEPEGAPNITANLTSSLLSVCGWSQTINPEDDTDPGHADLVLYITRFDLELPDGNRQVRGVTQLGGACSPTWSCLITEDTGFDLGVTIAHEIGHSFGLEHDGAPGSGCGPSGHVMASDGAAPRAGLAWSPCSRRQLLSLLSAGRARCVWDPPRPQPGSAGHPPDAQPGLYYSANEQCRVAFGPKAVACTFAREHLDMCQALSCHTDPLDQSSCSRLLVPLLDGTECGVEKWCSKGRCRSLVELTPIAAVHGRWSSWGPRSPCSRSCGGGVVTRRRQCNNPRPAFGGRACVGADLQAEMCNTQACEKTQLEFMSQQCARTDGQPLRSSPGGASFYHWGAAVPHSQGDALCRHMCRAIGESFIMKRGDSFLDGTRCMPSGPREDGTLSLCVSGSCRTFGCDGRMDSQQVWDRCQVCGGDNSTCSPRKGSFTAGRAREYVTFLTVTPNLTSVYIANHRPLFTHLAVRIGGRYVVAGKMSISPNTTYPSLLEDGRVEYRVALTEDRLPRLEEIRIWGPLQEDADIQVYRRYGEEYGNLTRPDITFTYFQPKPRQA

T5: human ADAMTS5 (human, UniProt Q9UNA0 262-622, limits assumed)
T5 construct: Octet and ELISA used 'recombinant human ADAMTS5'; also called recombinant human ADAMTS5; ADAMTS5 (R&D Systems 2198-AD)
T5 sequence: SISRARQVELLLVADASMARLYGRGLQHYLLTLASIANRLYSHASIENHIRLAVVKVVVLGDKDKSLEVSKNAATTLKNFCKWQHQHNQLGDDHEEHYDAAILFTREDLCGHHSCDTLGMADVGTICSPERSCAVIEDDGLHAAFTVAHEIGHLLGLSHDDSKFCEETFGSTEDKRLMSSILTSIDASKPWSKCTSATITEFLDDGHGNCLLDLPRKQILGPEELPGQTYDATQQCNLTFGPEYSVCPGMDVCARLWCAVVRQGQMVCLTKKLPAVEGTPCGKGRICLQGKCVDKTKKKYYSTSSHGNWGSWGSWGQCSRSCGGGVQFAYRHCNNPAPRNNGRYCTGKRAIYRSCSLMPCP

B1: 2D3.1D4 (antibody, V domains shown)
VH: EVKLEESGGGLVQPGGSMKLSCAASGITFSDAWMDWVRQSPEKGLEWVADIRNTANNHATFYAESVKGRFTISRDDSKSTVYLQMNTLRPEDTGIYYCTSPFAYWGQGTLVTVSA
VL: DIVMTQSQKFMSTTVGDRVSITCKASQNVGTAVVWFQQKPGQSPKLLIYSASNRYTRVPDRFTGSGSGTDFTLTISNVQSEDLADYFCQQYVNYPFTFGSGTKLEIKR
notes: Murine monoclonal antibody from a hybridoma
B2: 3A12.1D7 (antibody, V domains shown)
VH: EVKFEESGGGLVQPGGSMKLSCAASGFIFSDAWMDWVRQSPEKGLEWVAEIRHKANDYAIFYDESVKGRFTISRDDSKSIVYLQMNNLRPEDTGIYYCTSPFAYWGQGTLVTVSA
VL: B1 VL with T13V, N28S, A32T, V33I, F36Y, Y55H, R57G, T72I, V92S, N93S
notes: as for B1
B3: 5F10.1H6 (antibody, V domains shown)
VH: B2 VH with F4L, I28T, Y58H, N87S
VL: DIVMTQSQRFMSVTVGDRVSITCKASQSVGTTIVWYQQKPGQSPKLLIYSASTRYTGVPDRFTGGGSGTDFILTINNVQSEDLADYFCQQYSSYPFTFGSGTKLEIKR
notes: as for B1
B4: BPC1634 (antibody, human IgG1, kappa, V domains shown)
VH: EVQLVESGGGLVQPGGSLRLSCAASGFTFSDAWMDWVRQAPGKGLEWVAEIRNKANNHARHYAESVKGRFTISRDNAKNSLYLQMNSLRAEDTAVYYCARTYYYGSSYGYCDVWGQGTLVTVSS
VL: DIQMTQSPSSLSASVGDRVTITCRTSENIYSYLAWYQQKPGKAPKLLIYNAKTLAEGVPSRFSGSGSGTDFTLTISSLQPEDFATYYCQHHYGTPWTFGQGTKLEIKR
notes: Humanized, human gamma 1 / kappa; also called 7B4 H0L0; Humanized 7B4.1E11 H0L0
B5: BPC1649 (antibody, human IgG1, kappa, V domains shown)
VH: B4 VH with A99T
VL: B4 VL with K45Q, I48V
notes: Humanized, human gamma 1 / kappa; also called 7B4 H1L2
B6: BPC1650 (antibody, human IgG1, kappa, V domains shown)
VH: B4 VH with F29S
VL: B4 VL with K45Q, I48V
notes: Humanized, human gamma 1 / kappa; also called 7B4 H2L2
B7: BPC1651 (antibody, human IgG1, kappa, V domains shown)
VH: B4 VH with F29S, A99T
VL: B4 VL with K45Q, I48V
notes: Humanized, human gamma 1 / kappa; also called 7B4 H3L2
B8: BPC1652 (antibody, human IgG1, kappa, V domains shown)
VH: B4 VH with F29S, N76D, A99T
VL: B4 VL with K45Q, I48V
notes: Humanized, human gamma 1 / kappa; also called 7B4 H4L2
B9: BPC1653 (antibody, human IgG1, kappa, V domains shown)
VH: B4 VH with F29S, L81V, A99T
VL: B4 VL with K45Q, I48V
notes: Humanized, human gamma 1 / kappa; also called 7B4 H5L2
B10: BPC1654 (antibody, human IgG1, kappa, V domains shown)
VH: B4 VH with F29S, N76D, L81V, A99T
VL: B4 VL with K45Q, I48V
notes: Humanized, human gamma 1 / kappa; also called 7B4 H6L2

Tests used:
Human MMP1 = target: T1, Human MMP1; test: celTRF and Octet QK cross-reactivity
Human ADAMTS4 = target: T2, Human ADAMTS4; test: celTRF and Octet QK cross-reactivity
Human ADAMTS1 = target: T3, Human ADAMTS1; test: celTRF and Octet QK cross-reactivity
Human MMP9 = Human MMP9 (human, UniProt P14780 20-707, limits assumed); test: celTRF and Octet QK cross-reactivity
Human MMP13 = Human MMP13 (human, UniProt P45452 20-471, limits assumed); test: celTRF and Octet QK cross-reactivity
Human ADAMTS13 = target: T4, Human ADAMTS13; test: celTRF and Octet QK cross-reactivity
Human MMP3 = Human MMP3 (human, UniProt P08254 18-477, limits assumed); test: celTRF and Octet QK cross-reactivity
human ADAMTS5 [1] = target: T5, human ADAMTS5; test: Octet QK, purified murine mAb
human ADAMTS5 [2] = target: T5, human ADAMTS5; test: cell-based or functional assay
human ADAMTS5 [3] = target: T5, human ADAMTS5; test: Biacore, mAb from culture supernatant captured on anti-human IgG, ADAMTS5 (R&D 2198-AD) at 64 nM, 1:1 fit
Procedure: Anti-human IgG (Biacore™, BR-1008-39) was immobilized on a CM5 chip by primary amine coupling. This surface was then used to capture the humanized antibodies, ADAMTS5 (R&D Systems 2198-AD) was then passed over the captured antibody at a single concentration of 64 nM, regeneration was carried out using 100 mM phosphoric acid followed by 3M MgCl₂. The binding curves were double referenced with buffer injection (i.e. 0 nM) and the data was fitted to the T100 analysis software using the 1:1 model. The run was carried out at 25° C., using HBS-EP as the running buffer. All antibodies were captured from tissue culture supernatants unless specified.

human ADAMTS5 [4] = target: T5, human ADAMTS5; test: Octet QK, antigen down, incl avidity
human ADAMTS5 [5] = target: T5, human ADAMTS5; test: Biacore, mAb down, no avidity

Sequence of Human MMP9 (P14780 20-707 limits assumed): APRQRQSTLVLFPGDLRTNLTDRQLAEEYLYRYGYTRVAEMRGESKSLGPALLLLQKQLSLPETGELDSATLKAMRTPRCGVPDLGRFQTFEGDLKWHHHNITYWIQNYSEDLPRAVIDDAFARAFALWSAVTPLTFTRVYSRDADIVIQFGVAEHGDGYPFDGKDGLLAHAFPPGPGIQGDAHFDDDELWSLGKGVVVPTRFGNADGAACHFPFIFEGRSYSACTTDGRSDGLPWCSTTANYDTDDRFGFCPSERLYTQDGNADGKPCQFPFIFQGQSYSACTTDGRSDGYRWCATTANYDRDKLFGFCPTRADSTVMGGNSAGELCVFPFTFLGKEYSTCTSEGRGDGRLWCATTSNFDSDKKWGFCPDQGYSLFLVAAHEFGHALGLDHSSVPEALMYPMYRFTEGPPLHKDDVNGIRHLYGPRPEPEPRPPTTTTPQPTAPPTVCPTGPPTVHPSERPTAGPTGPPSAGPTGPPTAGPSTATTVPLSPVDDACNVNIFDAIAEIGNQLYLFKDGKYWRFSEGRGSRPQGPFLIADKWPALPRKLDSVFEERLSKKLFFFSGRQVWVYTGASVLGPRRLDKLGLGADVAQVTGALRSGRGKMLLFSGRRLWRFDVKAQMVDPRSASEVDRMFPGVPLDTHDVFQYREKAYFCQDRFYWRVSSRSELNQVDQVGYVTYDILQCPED
Sequence of Human MMP3 (P08254 18-477 limits assumed): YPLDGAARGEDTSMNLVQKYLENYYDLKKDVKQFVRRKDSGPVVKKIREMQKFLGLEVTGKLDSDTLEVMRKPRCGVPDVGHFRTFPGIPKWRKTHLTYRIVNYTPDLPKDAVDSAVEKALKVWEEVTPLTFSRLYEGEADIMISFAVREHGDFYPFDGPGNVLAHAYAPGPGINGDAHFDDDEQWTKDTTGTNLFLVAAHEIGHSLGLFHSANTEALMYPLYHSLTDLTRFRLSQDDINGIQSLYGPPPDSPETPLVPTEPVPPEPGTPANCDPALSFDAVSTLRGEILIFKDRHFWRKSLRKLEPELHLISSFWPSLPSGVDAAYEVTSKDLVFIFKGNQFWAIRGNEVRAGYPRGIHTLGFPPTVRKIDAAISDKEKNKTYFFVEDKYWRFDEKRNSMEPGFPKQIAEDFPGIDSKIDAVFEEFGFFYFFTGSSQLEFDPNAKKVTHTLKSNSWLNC

Row | Binder | binding result (Human MMP1) | binding result (Human ADAMTS4) | binding result (Human ADAMTS1) | binding result (Human MMP9) | binding result (Human MMP13) | binding result (Human ADAMTS13) | binding result (Human MMP3) | Kd (human ADAMTS5 [1]) [nM] | Aggrecan Substrate Cleavage Neutralization IC50 (human ADAMTS5 [2]) [nM] | Kd (human ADAMTS5 [3]) [nM] | koff (human ADAMTS5 [3]) [s⁻¹] | kon (human ADAMTS5 [3]) [M⁻¹ s⁻¹] | Kd (human ADAMTS5 [4]) [nM] | Kd (human ADAMTS5 [5]) [nM]
1 | B1 | no binding | no binding | no binding | no binding | no binding | no binding | no binding | 0.0862 | 0.031 | – | – | – | – | –
2 | B2 | no binding | no binding | no binding | no binding | no binding | no binding | no binding | 0.0824 | 0.769 | – | – | – | – | –
3 | B3 | no binding | no binding | no binding | no binding | no binding | no binding | no binding | 0.126 | 0.05 | – | – | – | – | –
4 | B4 | – | – | – | – | – | – | – | – | – | 0.869 | 0.000481 | 554000 | 0.205 | 0.869
5 | B5 | – | – | – | – | – | – | – | – | – | 1.27 | 0.0013 | 1.02e+06 | – | –
6 | B6 | – | – | – | – | – | – | – | – | – | 1.09 | 0.00343 | 3.14e+06 | – | –
7 | B7 | – | – | – | – | – | – | – | – | – | 1.19 | 0.00315 | 2.65e+06 | – | –
8 | B8 | – | – | – | – | – | – | – | – | – | 1.08 | 0.00212 | 1.96e+06 | – | –
9 | B9 | – | – | – | – | – | – | – | – | – | 1.16 | 0.0026 | 2.24e+06 | – | –
10 | B10 | – | – | – | – | – | – | – | – | – | 1.09 | 0.00114 | 1.04e+06 | – | –
